Data: patent publication US20110014117A1

Experiments:
[1] = target: recombinant human soluble IGF1R fragment (R&D Systems) (human); assay: competitive ELISA on coated sIGF1R fragment, competitor biotinylated 19D12 LCF/HCA; antibody at 1 ug/ml
[2] = target: recombinant human soluble IGF1R fragment (R&D Systems) (human); assay: competitive ELISA on coated sIGF1R fragment, inhibition of biotinylated 19D12 LCF/HCA binding; antibody at 4 ug/ml
[3] = target: recombinant human soluble IGF1R fragment (R&D Systems) (human); assay: competitive ELISA on coated sIGF1R fragment, competitor biotinylated 19D12 LCF/HCA; antibody at 8 ug/ml
[4] = target: recombinant human soluble IGF1R fragment (R&D Systems) (human); assay: competitive ELISA on coated sIGF1R fragment, competitor biotinylated 19D12 LCF/HCA; antibody at 4 ug/ml
[5] = target: recombinant human soluble IGF1R fragment (R&D Systems) (human); assay: competitive ELISA on coated sIGF1R fragment, competitor biotinylated 19D12 LCF/HCA; antibody at 2 ug/ml
[6] = target: recombinant human soluble IGF1R fragment (R&D Systems) (human); assay: competitive ELISA on coated sIGF1R fragment, inhibition of biotinylated 19D12 LCF/HCA binding; antibody at 0.03125 ug/ml
[7] = target: recombinant human soluble IGF1R fragment (R&D Systems) (human); assay: competitive ELISA on coated sIGF1R fragment, inhibition of biotinylated 19D12 LCF/HCA binding; antibody at 0.5 ug/ml
[8] = target: recombinant human soluble IGF1R fragment (R&D Systems) (human); assay: competitive ELISA on coated sIGF1R fragment, competitor biotinylated 19D12 LCF/HCA; antibody at 0.5 ug/ml
[9] = target: recombinant human soluble IGF1R fragment (R&D Systems) (human); assay: competitive ELISA on coated sIGF1R fragment, competitor biotinylated 19D12 LCF/HCA; antibody at 0.0625 ug/ml
[10] = target: recombinant human soluble IGF1R fragment (R&D Systems) (human); assay: competitive ELISA on coated sIGF1R fragment, competitor biotinylated 19D12 LCF/HCA; antibody at 0.25 ug/ml
[11] = target: recombinant human soluble IGF1R fragment (R&D Systems) (human); assay: competitive ELISA on coated sIGF1R fragment, competitor biotinylated 19D12 LCF/HCA; antibody at 0.03125 ug/ml
[12] = target: recombinant human soluble IGF1R fragment (R&D Systems) (human); assay: competitive ELISA on coated sIGF1R fragment, inhibition of biotinylated 19D12 LCF/HCA binding; antibody at 1 ug/ml
[13] = target: recombinant human soluble IGF1R fragment (R&D Systems) (human); assay: competitive ELISA on coated sIGF1R fragment, competitor biotinylated 19D12 LCF/HCA; antibody at 0.015625 ug/ml
[14] = target: recombinant human soluble IGF1R fragment (R&D Systems) (human); assay: competitive ELISA on coated sIGF1R fragment, inhibition of biotinylated 19D12 LCF/HCA binding; antibody at 0.007813 ug/ml
[15] = target: recombinant human soluble IGF1R fragment (R&D Systems) (human); assay: competitive ELISA on coated sIGF1R fragment, inhibition of biotinylated 19D12 LCF/HCA binding; antibody at 0.0625 ug/ml
[16] = target: recombinant human soluble IGF1R fragment (R&D Systems) (human); assay: competitive ELISA on coated sIGF1R fragment, inhibition of biotinylated 19D12 LCF/HCA binding; antibody at 0.25 ug/ml
[17] = target: recombinant human soluble IGF1R fragment (R&D Systems) (human); assay: competitive ELISA on coated sIGF1R fragment, inhibition of biotinylated 19D12 LCF/HCA binding; antibody at 0.125 ug/ml
[18] = target: recombinant human soluble IGF1R fragment (R&D Systems) (human); assay: competitive ELISA on coated sIGF1R fragment, inhibition of biotinylated 19D12 LCF/HCA binding; antibody at 0.015625 ug/ml
[19] = target: recombinant human soluble IGF1R fragment (R&D Systems) (human); assay: competitive ELISA on coated sIGF1R fragment, competitor biotinylated 19D12 LCF/HCA; antibody at 0.007813 ug/ml
[20] = target: recombinant human soluble IGF1R fragment (R&D Systems) (human); assay: competitive ELISA on coated sIGF1R fragment, inhibition of biotinylated 19D12 LCF/HCA binding; antibody at 2 ug/ml
[21] = target: recombinant human soluble IGF1R fragment (R&D Systems) (human); assay: competitive ELISA on coated sIGF1R fragment, competitor biotinylated 19D12 LCF/HCA; antibody at 0.125 ug/ml
[22] = target: recombinant human soluble IGF1R fragment (R&D Systems) (human); assay: competitive ELISA on coated sIGF1R fragment, inhibition of biotinylated 19D12 LCF/HCA binding; antibody at 8 ug/ml

Row | Substance | OD [1] [OD] | % Inhibition [2] [%] | OD [3] [OD] | OD [4] [OD] | OD [5] [OD] | % Inhibition [6] [%] | % Inhibition [7] [%] | OD [8] [OD] | OD [9] [OD] | OD [10] [OD] | OD [11] [OD] | % Inhibition [12] [%] | OD [13] [OD] | % Inhibition [14] [%] | % Inhibition [15] [%] | % Inhibition [16] [%] | % Inhibition [17] [%] | % Inhibition [18] [%] | OD [19] [OD] | % Inhibition [20] [%] | also measured
1 | anti-IGF1R antibody 19D12 LCF/HCA | 0.001 | 100 | -0.0045 | -0.0025 | -0.0025 | 13.8 | 98.4 | 0.021 | 1 | 0.169 | 1.1 | 99.9 | 1.25 | 4.05 | 21.7 | 86.8 | 65.3 | 2.33 | 1.23 | 100 | OD [21]: 0.443 OD; % Inhibition [22]: 100%
2 | commercially available anti-IGF1R antibody MAB391 | 0.355 | 94.3 | 0.045 | 0.0725 | 0.163 | -10.1 | 50.9 | 0.628 | 1.24 | 0.981 | 1.41 | 72.2 | 1.25 | -2.16 | 2.69 | 23.3 | 9.61 | 1.9 | 1.31 | 87.2 | OD [21]: 1.16 OD; % Inhibition [22]: 96.5%
